Test results: the supplement of paper PMC10126150
± gives the standard deviation of the averaged measurements.
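Also: ATP exposure 15 min at 22 °C before imaging.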

These sequences were tested on ATP (assay: switch fluorescence ratio, 500 uM ATP over buffer (Cy3 cluster intensity, sum of 5 cycles each) (fold (ratio)); higher = stronger signal-on switching upon ATP binding; sequences stand for … in TCGTCGGCAGCGTCAGATGTGTATAAGAGACAGTTTTTTTTTTTTTTTTTTTTTTTTT…TC). Settings: aptamer strand: ATP DNA aptamer (quencher-CACCTGGGGGAGTATTGCGGAGGAAGG + anchor), 100 nM annealed; ATP concentration: 500 uM.
In short: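 The fluorescence ratio divides summed target-cycle Cy3 intensity by summed buffer-cycle Cy3 intensity for each cluster and is averaged per switch-domain sequence. Cy3-labelled switching-strand clusters on a modified Illumina MiSeq flow-cell were annealed to 100 nM quencher-labelled ATP aptamer, then imaged in selection buffer and again after 15 min with 500 uM ATP at 22 °C. Five such cycles were run, with NaOH stripping and re-annealing between them, and clusters outside 100-1000 RFU were excluded.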
In the case of CGGTCGGGGG, the switch fluorescence ratio is reported as 0.999 ± 0.032. AATGTGGCTA gave a switch fluorescence ratio of 1.01 ± 0.037. Work on CCAGCATGGG yielded a switch fluorescence ratio of 1.02 ± 0.015. With CTTGGCCGCG the switch fluorescence ratio was 0.987 ± 0.011. With CGATTTCCTA the switch fluorescence ratio was 0.987 ± 0.015. Sequence GAACTCGGCT has a switch fluorescence ratio of 0.959 ± 0.12. AGGACGGTAG showed a switch fluorescence ratio of 0.992 ± 0.058. Work on GGTGGTGGGT yielded a switch fluorescence ratio of 0.986 ± 0.021. In the case of CCGGGGGGGC, the switch fluorescence ratio is reported as 1.32 ± 0.66. For GTTAAAATAC, the switch fluorescence ratio was 1.13 ± 0.014. For CTGCAACAGA, the switch fluorescence ratio was 1.0455 ± 0.00015. Work on TGCTAGACTG yielded a switch fluorescence ratio of 1.03 ± 0.09. ATTATGATAT gave a switch fluorescence ratio of 1.01 ± 0.015. Work on GTATCAACGG yielded a switch fluorescence ratio of 1.034 ± 0.0028. For GTATGTGGGG, the switch fluorescence ratio was 0.996 ± 0.038. Sequence ACCATTGTGA has a switch fluorescence ratio of 0.998 ± 0.014. Sequence GATATATGCA has a switch fluorescence ratio of 0.997 ± 0.028. ACTCATATCG was tested, and the switch fluorescence ratio was 0.987 ± 0.029. TTAAGCCCTT gave a switch fluorescence ratio of 1.04 ± 0.036. CCATCATTCA gave a switch fluorescence ratio of 1 ± 0.028. For CGTAGCATCG, the switch fluorescence ratio was 1.1 ± 0.038. GTTACTAATT gave a switch fluorescence ratio of 0.9943 ± 0.0081. In the case of AAGGTCAAGG, the switch fluorescence ratio is reported as 1.015 ± 0.0056. Sequence GATTTTCCTA has a switch fluorescence ratio of 0.9608 ± 0.0014. With TTGGGGAGGC the switch fluorescence ratio was 0.9835 ± 0.0015. TAATTCCCGT gave a switch fluorescence ratio of 1.01 ± 0.036. Sequence TTCTTTTTAG has a switch fluorescence ratio of 0.9793 ± 0.0051. With ATACGTTGG the switch fluorescence ratio was 0.9748 ± 0.0046. For ATAACAGAGG, the switch fluorescence ratio was 1.04 ± 0.013. With CGGTGGATTC the switch fluorescence ratio was 1.0049 ± 0.00055. Work on GGGTGGGCAG yielded a switch fluorescence ratio of 1.009 ± 0.0027. Work on TAAGGGGGAA yielded a switch fluorescence ratio of 1.03 ± 0.06. Work on TGGTGGGCGA yielded a switch fluorescence ratio of 1.04 ± 0.058. With GGGAAAGCGC the switch fluorescence ratio was 1.03 ± 0.064. GGTTTGGTCA was tested, and the switch fluorescence ratio was 1 ± 0.0055. AATTGGTACG was tested, and the switch fluorescence ratio was 0.992 ± 0.021. GGAATGAAGT was tested, and the switch fluorescence ratio was 1.07 ± 0.049. Work on AAGGTACCGG yielded a switch fluorescence ratio of 1.01 ± 0.03. TGCCGGATTT gave a switch fluorescence ratio of 1.02 ± 0.018. In the case of AATAGGGGTA, the switch fluorescence ratio is reported as 0.987 ± 0.029. With GGGGATGGAA the switch fluorescence ratio was 1.02 ± 0.013. In the case of ATTTATTCTT, the switch fluorescence ratio is reported as 1.011 ± 0.0052. TGACTTGGG was tested, and the switch fluorescence ratio was 0.935 ± 0.02. TTTTAACGAA gave a switch fluorescence ratio of 1.01 ± 0.013. Sequence TGGGGATGGT has a switch fluorescence ratio of 0.991 ± 0.062. GGGGTTGACA showed a switch fluorescence ratio of 1.04 ± 0.051. Work on AGAATGCAGC yielded a switch fluorescence ratio of 0.995 ± 0.041. CGGGTCGGTT was tested, and the switch fluorescence ratio was 1.07 ± 0.1. With AATTTTATTG the switch fluorescence ratio was 0.988 ± 0.05. With TTATGCTGGG the switch fluorescence ratio was 0.974 ± 0.012. Sequence GGGTGATTAA has a switch fluorescence ratio of 0.994 ± 0.017. Work on ATGTAATTTA yielded a switch fluorescence ratio of 1 ± 0.017. For GCAGGGGAGT, the switch fluorescence ratio was 1.17 ± 0.29. GAGTTCTTCA gave a switch fluorescence ratio of 0.973 ± 0.015. For AAAAGGGGGC, the switch fluorescence ratio was 1.01 ± 0.05. For TGACTAGGGG, the switch fluorescence ratio was 0.949 ± 0.1. For TTTAGGCGGG, the switch fluorescence ratio was 1.05 ± 0.044. With AGGGTTACTG the switch fluorescence ratio was 1.04 ± 0.068. With GGGAGATTGG the switch fluorescence ratio was 1.09 ± 0.12. Work on GCTGAAAAGA yielded a switch fluorescence ratio of 0.97 ± 0.032. With TGCGTCAGGG the switch fluorescence ratio was 0.974 ± 0.015. Work on TAGGGTTTAA yielded a switch fluorescence ratio of 1.01 ± 0.021. ATATCCCTGT gave a switch fluorescence ratio of 1.009 ± 0.0049. TTTTAAAGA showed a switch fluorescence ratio of 0.982 ± 0.026. In the case of TAATTCGAG, the switch fluorescence ratio is reported as 1.04 ± 0.029. TGATTTATG showed a switch fluorescence ratio of 1.01 ± 0.002. Work on GAATGATGGG yielded a switch fluorescence ratio of 0.987 ± 0.024. Sequence TTTGGGGCGT has a switch fluorescence ratio of 1 ± 0.035. AGGAAAGGCG showed a switch fluorescence ratio of 1.09 ± 0.015. GGATTAATCT was tested, and the switch fluorescence ratio was 0.998 ± 0.019. Work on TTTGTGGCGT yielded a switch fluorescence ratio of 0.984 ± 0.023. With GGGGGGGCCC the switch fluorescence ratio was 1.01 ± 0.026. With GTCTGGGGGA the switch fluorescence ratio was 1.03 ± 0.042. TTTTGTCAAT was tested, and the switch fluorescence ratio was 1.1 ± 0.13. Sequence CGGAGAGAGC has a switch fluorescence ratio of 0.993 ± 0.011. AAACAGGGAT showed a switch fluorescence ratio of 1 ± 0.032. For GGCCCCGGGG, the switch fluorescence ratio was 1.11 ± 0.069. CAATTGTACG showed a switch fluorescence ratio of 1 ± 0.011. TTTTTGTTT was tested, and the switch fluorescence ratio was 0.988 ± 0.01. With AAATTATTCG the switch fluorescence ratio was 1.03 ± 0.045. With TGGTAGCAGT the switch fluorescence ratio was 0.989 ± 0.037. TTCGGGTCCG showed a switch fluorescence ratio of 0.988 ± 0.067. AATCAAGTAG was tested, and the switch fluorescence ratio was 0.9821 ± 0.0086. With TTTTAGACAG the switch fluorescence ratio was 1.01 ± 0.017. With AGGGGCTAGG the switch fluorescence ratio was 0.983 ± 0.033. In the case of TAATAAATGT, the switch fluorescence ratio is reported as 0.9941 ± 0.0044. Work on GAAGCATTTT yielded a switch fluorescence ratio of 1.07 ± 0.045. For AGCGTTTTTT, the switch fluorescence ratio was 0.998 ± 0.026. For GCGTTAACTC, the switch fluorescence ratio was 1.08 ± 0.026. TAGTACTATC was tested, and the switch fluorescence ratio was 0.993 ± 0.021. TGGTGAAAGA was tested, and the switch fluorescence ratio was 1.01 ± 0.029. Sequence TCAAGCCCAT has a switch fluorescence ratio of 1 ± 0.045. With GCCGCGGGGA the switch fluorescence ratio was 1.04 ± 0.024. Work on TATTAAGGGT yielded a switch fluorescence ratio of 0.979 ± 0.029. Sequence TTTAGTCGTA has a switch fluorescence ratio of 1.01 ± 0.021. With TACGGTTGCA the switch fluorescence ratio was 1.01 ± 0.017. Work on AGGGAGGAGC yielded a switch fluorescence ratio of 0.923 ± 0.045. Work on CAAGTTTATT yielded a switch fluorescence ratio of 1.001 ± 0.01. GTATTTATGA showed a switch fluorescence ratio of 0.974 ± 0.0056. AAATATGGGC gave a switch fluorescence ratio of 0.961 ± 0.022. TCAGAAATAG was tested, and the switch fluorescence ratio was 1.24 ± 0.15. In the case of CGAGCATGTA, the switch fluorescence ratio is reported as 1.168 ± 0.0052. GTCGCTAATG gave a switch fluorescence ratio of 0.996 ± 0.016. In the case of GATTCGTGAC, the switch fluorescence ratio is reported as 1.03 ± 0.052. TCATGAGAGT was tested, and the switch fluorescence ratio was 0.998 ± 0.011. AACTTGTCAT gave a switch fluorescence ratio of 1 ± 0.0063. CCATTTTGCG showed a switch fluorescence ratio of 1 ± 0.011. Sequence GAAATCGGTG has a switch fluorescence ratio of 0.995 ± 0.036. For CCTACGGTGG, the switch fluorescence ratio was 1.04 ± 0.04. With AAAAGCCGGG the switch fluorescence ratio was 0.979 ± 0.16. With TCGCGCGGAG the switch fluorescence ratio was 1.04 ± 0.024. GCTAGGGCTT gave a switch fluorescence ratio of 1.01 ± 0.062. TCCGGGGTGC showed a switch fluorescence ratio of 2.36 ± 1. With AAATGGGTTG the switch fluorescence ratio was 1 ± 0.01. For GTCCAAAAAA, the switch fluorescence ratio was 1.08 ± 0.067. For TGGAGCTTGA, the switch fluorescence ratio was 1.02 ± 0.021. TCAAACGGGG showed a switch fluorescence ratio of 1 ± 0.045. Work on GTATGAAGGG yielded a switch fluorescence ratio of 0.9756 ± 0.0049. With GGCGGTTTGA the switch fluorescence ratio was 0.969 ± 0.014. Sequence AGGTCTAGTT has a switch fluorescence ratio of 0.9995 ± 0.0089. ACGAGGGGAA was tested, and the switch fluorescence ratio was 1.015 ± 0.0057. With CTGTATTACG the switch fluorescence ratio was 0.995 ± 0.027. TAGCGGGTTG was tested, and the switch fluorescence ratio was 1.03 ± 0.036. For TCTATTGGGA, the switch fluorescence ratio was 0.981 ± 0.028. GGTGTTTTTT was tested, and the switch fluorescence ratio was 0.99 ± 0.011. TTGGGTGGCA gave a switch fluorescence ratio of 1.03 ± 0.039. TGGGAGGCCT was tested, and the switch fluorescence ratio was 1.02 ± 0.021. In the case of CAGGTAGTCT, the switch fluorescence ratio is reported as 0.997 ± 0.024. With GCGCGACGGA the switch fluorescence ratio was 0.9905 ± 0.0014. AGTTCCTTAG was tested, and the switch fluorescence ratio was 1.05 ± 0.043. Work on GGGATAGATT yielded a switch fluorescence ratio of 1.028 ± 0.008. AGGGTTGAAG gave a switch fluorescence ratio of 0.989 ± 0.035. GACGAGCGGG was tested, and the switch fluorescence ratio was 1 ± 0.025. CGGGGGTCGA gave a switch fluorescence ratio of 0.989 ± 0.031. GTGCTAGTCT gave a switch fluorescence ratio of 0.979 ± 0.067. For TTACCGGACT, the switch fluorescence ratio was 1.11 ± 0.042. Sequence ACAAAAGGGG has a switch fluorescence ratio of 1.16 ± 0.22. CCGGAACATG gave a switch fluorescence ratio of 1.23 ± 0.058. AGCTGAGTAA showed a switch fluorescence ratio of 1.036 ± 0.0085. In the case of CGCTTAAAGT, the switch fluorescence ratio is reported as 1.03 ± 0.05. Work on GAAGGCTCTG yielded a switch fluorescence ratio of 0.9922 ± 0.0071. Work on TTGGGGGTAA yielded a switch fluorescence ratio of 0.987 ± 0.018. GGGGATCGGG was tested, and the switch fluorescence ratio was 0.965 ± 0.022. In the case of GCAGCCTGTT, the switch fluorescence ratio is reported as 0.994 ± 0.011. GACTACGGCC gave a switch fluorescence ratio of 1.049 ± 0.0065. Work on TGGCTTTTGT yielded a switch fluorescence ratio of 1.44 ± 0.63. AATGTGTTGT gave a switch fluorescence ratio of 0.998 ± 0.011. For GAAAAAGCGT, the switch fluorescence ratio was 1.07 ± 0.03. For TCAAACGTAG, the switch fluorescence ratio was 0.9793 ± 0.0085. With GAATACGGTT the switch fluorescence ratio was 1.26 ± 0.44. For CTGGTATTTG, the switch fluorescence ratio was 1.05 ± 0.041. TTTCTTCAAA gave a switch fluorescence ratio of 0.997 ± 0.02. CGGCTTACTT showed a switch fluorescence ratio of 1.07 ± 0.011. Work on AATGGTGCGA yielded a switch fluorescence ratio of 0.975 ± 0.012. In the case of TAGGGGGTT, the switch fluorescence ratio is reported as 1.01 ± 0.026. For AGGTCCTTCA, the switch fluorescence ratio was 1.29 ± 0.046. Work on ACGAGACGC yielded a switch fluorescence ratio of 1.16 ± 0.031.
